Laboratory results taken from US20090099029A1, “Methods and substrates for conducting assays” (Invitrogen Corporation, priority 2005, published 2009).

B1: TYRO3 (protein)
chain: LRKRRKETRFGQAFDSVMARGEPAVHFRAARSFNRERPERIEATLDSLGISDELKEKLEDVLIPEQQFTLGRMLGKGEFGSVREAQLKQEDGSFVKVAVKMLKADIIASSDIEEFLREAACMKEFDHPHVAKLVGVSLRSRAKGRLPIPMVILPFMKHGDLHAFLLASRIGENPFNLPLQTLIRFMVDIACGMEYLSSRNFIHRDLAARNCMLAEDMTVCVADFGLSRKIYSGDYYRQGCASKLPVKWLALESLADNLYTVQSDVWAFGVTMWEIMTRGQTPYAGIENAEIYNYLIGGNRLKQPPECMEDVYDLMYQCWSADPKQRPSFTCLRMELENILGQLSVLSASQDPLYINIERAEEPTAGGSLELPGRDQPYSGAGDGSGMGAVGGTPSDCRYILTPGGLAEQPGQAEHQPESPLNETQRLLLLQQGLLPHSSC
modifications: left off: a dimerising Fc or GST
B2: ABL2(ARG) (protein)
chain: MGQQVGRVGEAPGLQQPQPRGIRGSSAARPSGRRRDPAGRTTETGFNIFTQHDHFASCVEDGFEGDKTGGSSPEALHRPYGCDVEPQALNEAIRWSSKENLLGATESDPNLFVALYDFVASGDNTLSITKGEKLRVLGYNQNGEWSEVRSKNGQGWVPSNYITPVNSLEKHSWYHGPVSRSAAEYLLSSLINGSFLVRESESSPGQLSISLRYEGRVYHYRINTTADGKVYVTAESRFSTLAELVHHHSTVADGLVTTLHYPAPKCNKPTVYGVSPIHDKWEMERTDITMKHKLGGGQYGEVYVGVWKKYSLTVAVKTLKEDTMEVEEFLKEAAVMKEIKHPNLVQLLGVCTLEPPFYIVTEYMPYGNLLDYLRECNREEVTAVVLLYMATQISSAMEYLEKKNFIHRDLAARNCLVGENHVVKVADFGLSRLMTGDTYTAHAGAKFPIKWTAPESLAYNTFSIKSDVWAFGVLLWEIATYGMSPYPGIDLSQVYDLLEKGYRMEQPEGCPPKVYELMRACWKWSPADRPSFAETHQAFETMFHDSSISEEVAEELGRAASSSSVVPYLPRLPILPSKTRTLKKQVENKENIEGAQDATENSASSLAPGFIRGAQASSGSPALPRKQRDKSPSSLLEDAKETCFTRDRKGGFFSSFMKKRNAPTPPKRSSSFREMENQPHKKYELTGNFSSVASLQHADGFSFTPAQQEANLVPPKCYGGSFAQRNLCNDDGGGGGGSGTAGGGWSGITGFFTPRLIKKTLGLRAGKPTASDDTSKPFPRSNSTSSMSSGLPEQDRMAMTLPRNCQRSKLQLERTVSTSSQPEENVDRANDMLPKKSEESAAPSRERPKAKLLPRGATALPLRTPSGDLAITEKDPPGVGVAGVAAAPKGKEKNGGARLGMAGVPEDGEQPGWPSPAKAAPVLPTTHNHKVPVLISPTLKHTPADVQLIGTDSQGNKFKLLSEHQVTSSGDKDRPRRVKPKCAPPPPPVMRLLQHPSICSDPTEEPTALTAGQSTSETQEGGKKAALGAVPISGKAGRPVMPPPQVPLPTSSISPAKMANGTAGTKVALRKTKQAAEKISADKISKEALLECADLLSSALTEPVPNSQLVDTGHQLLDYCSGYVDCIPQTRNKFAFREAVSKLELSLQELQVSSAAAGVPGTNPVLNNLLSCVQEISDVVQR
modifications: left off: small tags and cut ends
B3: JAK3 (protein)
chain: ISSDYELLSDPTPGALAPRDGLWNGAQLYACQDPTIFEERHLKYISQLGKGNFGSVELCRYDPLGDNTGALVAVKQLQHSGPDQQRDFQREIQILKALHSDFIVKYRGVSYGPGRQSLRLVMEYLPSGCLRDFLQRHRARLDASRLLLYSSQICKGMEYLGSRRCVHRDLAARNILVESEAHVKIADFGLAKLLPLDKDYYVVREPGQSPIFWYAPESLSDNIFSRQSDVWSFGVVLYELFTYCDKSCSPSAEFLRMMGCERDVPALCRLLELLEEGQRLPAPPACPAEVHELMKLCWAPSPQDRPSFSALGPQLDMLWSGSRGCETHAFTAHPEGKHHSLSFS
modifications: left off: a dimerising Fc or GST
B4: FES (protein)
chain: MGFSSELCSPQGHGVLQQMQEAELRLLEGMRKWMAQRVKSDREYAGLLHHMSLQDSGGQSRAISPDSPISQSWAEITSQTEGLSRLLRQHAEDLNSGPLSKLSLLIRERQQLRKTYSEQWQQLQQELTKTHSQDIEKLKSQYRALARDSAQAKRKYQEASKDKDRDKAKDKYVRSLWKLFAHHNRYVLGVRAAQLHHQHHHQLLLPGLLRSLQDLHEEMACILKEILQEYLEISSLVQDEVVAIHREMAAAAARIQPEAEYQGFLRQYGSAPDVPPCVTFDESLLEEGEPLEPGELQLNELTVESVQHTLTSVTDELAVATEMVFRRQEMVTQLQQELRNEEENTHPRERVQLLGKRQVLQEALQGLQVALCSQAKLQAQQELLQTKLEHLGPGEPPPVLLLQDDRHSTSSSEQEREGGRTPTLEILKSHISGIFRPKFSLPPPLQLIPEVQKPLHEQLWYHGAIPRAEVAELLVHSGDFLVRESQGKQEYVLSVLWDGLPRHFIIQSLDNLYRLEGEGFPSIPLLIDHLLSTQQPLTKKSGVVLHRAVPKDKWVLNHEDLVLGEQIGRGNFGEVFSGRLRADNTLVAVKSCRETLPPDLKAKFLQEARILKQYSHPNIVRLIGVCTQKQPIYIVMELVQGGDFLTFLRTEGARLRVKTLLQMVGDAAAGMEYLESKCCIHRDLAARNCLVTEKNVLKISDFGMSREEADGVYAASGGLRQVPVKWTAPEALNYGRYSSESDVWSFGILLWETFSLGASPYPNLSNQQTREFVEKGGRLPCPELCPDAVFRLMEQCWAYEPGQRPSFSTIYQELQSIRKRHR
modifications: left off: small tags and cut ends
B5: CSK (protein)
chain: MSAIQAAWPSGTECIAKYNFHGTAEQDLPFCKGDVLTIVAVTKDPNWYKAKNKVGREGIIPANYVQKREGVKAGTKLSLMPWFHGKITREQAERLLYPPETGLFLVRESTNYPGDYTLCVSCDGKVEHYRIMYHASKLSIDEEVYFENLMQLVEHYTSDADGLCTRLIKPKVMEGTVAAQDEFYRSGWALNMKELKLLQTIGKGEFGDVMLGDYRGNKVAVKCIKNDATAQAFLAEASVMTQLRHSNLVQLLGVIVEEKGGLYIVTEYMAKGSLVDYLRSRGRSVLGGDCLLKFSLDVCEAMEYLEGNNFVHRDLAARNVLVSEDNVAKVSDFGLTKEASSTQDTGKLPVKWTAPEALREKKFSTKSDVWSFGILLWEIYSFGRVPYPRIPLKDVVPRVEKGYKMDAPDGCPPAVYEVMKNCWHLDAAMRPSFLQLREQLEHIKTHELHL
modifications: left off: small tags and cut ends
B6: BMX (protein)
chain: MDTKSILEELLLKRSQQKKKMSPNNYKERLFVLTKTNLSYYEYDKMKRGSRKGSIEIKKIRCVEKVNLEEQTPVERQYPFQIVYKDGLLYVYASNEESRSQWLKALQKEIRGNPHLLVKYHSGFFVDGKFLCCQQSCKAAPGCTLWEAYANLHTAVNEEKHRVPTFPDRVLKIPRAVPVLKMDAPSSSTTLAQYDNESKKNYGSQPPSSSTSLAQYDSNSKKIYGSQPNFNMQYIPREDFPDWWQVRKLKSSSSSEDVASSNQKERNVNHTTSKISWEFPESSSSEEEENLDDYDWFAGNISRSQSEQLLRQKGKEGAFMVRNSSQVGMYTVSLFSKAVNDKKGTVKHYHVHTNAENKLYLAENYCFDSIPKLIHYHQHNSAGMITRLRHPVSTKANKVPDSVSLGNGIWELKREEITLLKELGSGQFGVVQLGKWKGQYDVAVKMIKEGSMSEDEFFQEAQTMMKLSHPKLVKFYGVCSKEYPIYIVTEYISNGCLLNYLRSHGKGLEPSQLLEMCYDVCEGMAFLESHQFIHRDLAARNCLVDRDLCVKVSDFGMTRYVLDDQYVSSVGTKFPVKWSAPEVFHYFKYSSKSDVWAFGILMWEVFSLGKQPYDLYDNSQVVLKVSQGHRLYRPHLASDTIYQIMYSCWHELPEKRPTFQQLLSSIEPLREKDKH
modifications: left off: small tags and cut ends
B7: FER (protein)
chain: KSGVVLLNPIPKDKKWILSHEDVILGELLGKGNFGEVYKGTLKDKTSVAVKTCKEDLPQELKIKFLQEAKILKQYDHPNIVKLIGVCTQRQPVYIIMELVSGGDFLTFLRRKKDELKLKQLVKFSLDAAAGMLYLESKNCIHRDLAARNCLVGENNVLKISDFGMSRQEDGGVYSSSGLKQIPIKWTAPEALNYGRYSSESDVWSFGILLWETFSLGVCPYPGMTNQQAREQVERGYRMSAPQHCPEDISKIMMKCWDYKPENRPKFSELQKELTIIKRKLT
modifications: left off: a dimerising Fc or GST
B8: BTK (protein)
chain: MAAVILESIFLKRSQQKKKTSPLNFKKRLFLLTVHKLSYYEYDFERGRRGSKKGSIDVEKITCVETVVPEKNPPPERQIPRRGEESSEMEQISIIERFPYPFQVVYDEGPLYVFSPTEELRKRWIHQLKNVIRYNSDLVQKYHPCFWIDGQYLCCSQTAKNAMGCQILENRNGSLKPGSSHRKTKKPLPPTPEEDQILKKPLPPEPAAAPVSTSELKKVVALYDYMPMNANDLQLRKGDEYFILEESNLPWWRARDKNGQEGYIPSNYVTEAEDSIEMYEWYSKHMTRSQAEQLLKQEGKEGGFIVRDSSKAGKYTVSVFAKSTGDPQGVIRHYVVCSTPQSQYYLAEKHLFSTIPELINYHQHNSAGLISRLKYPVSQQNKNAPSTAGLGYGSWEIDPKDLTFLKELGTGQFGVVKYGKWRGQYDVAIKMIKEGSMSEDEFIEEAKVMMNLSHEKLVQLYGVCTKQRPIFIITEYMANGCLLNYLREMRHRFQTQQLLEMCKDVCEAMEYLESKQFLHRDLAARNCLVNDQGVVKVSDFGLSRYVLDDEYTSSVGSKFPVRWSPPEVLMYSKFSSKSDIWAFGVLMWEIYSLGKMPYERFTNSETAEHIAQGLRLYRPHLASEKVYTIMYSCWHEKADERPTFKILLSNILDVMDEES
modifications: left off: small tags and cut ends
B9: ROS1 (protein)
chain: HRRLKNQKSAKEGVTVLINEDKELAELRGLAAGVGLANACYAIHTLPTQEEIENLPAFPREKLTLRLLLGSGAFGEVYEGTAVDILGVGSGEIKVAVKTLKKGSTDQEKIEFLKEAHLMSKFNHPNILKQLGVCLLNEPQYIILELMEGGDLLTYLRKARMATFYGPLLTLVDLVDLCVDISKGCVYLERMHFIHRDLAARNCLVSVKDYTSPRIVKIGDFGLARDIYKNDYYRKRGEGLLPVRWMAPESLMDGIFTTQSDVWSFGILIWEILTLGHQPYPAHSNLDVLNYVQTGGRLEPPRNCPDDLWNLMTQCWAQEPDQRPTFHRIQDQLQLFRNFFLNSIYKSRDEANNSGVINESFEGEDGDVICLNSDDIMPVALMETKNREGLNYMVLATECGQGEEKSEGPLGSQESESCGLRKEEKEPHADKDFCQEKQVAYCPSGKPEGLNYACLTHSGYGDGSD
modifications: left off: a dimerising Fc or GST

system: kinases of Table 6 on Myelin Basic Protein (MBP); assay: Kinase assay using MBP substrate, ProQ Diamond stain (Table 6); format: biochemical; details: kinase printed on MBP-coated slide; 20 uM ATP, 30° C.; ProQ Diamond Microarray Stain; graded Strong/Weak/Negative
In short: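 Reactions ran at 30° C. with 20 uM ATP, 4 mM MgCl2 and 5% DMSO in HEPES pH 7.5, inhibitor added or omitted. Kinases had been arrayed onto slide-bound dephosphorylated bovine MBP; phospho-signal read after ProQ Diamond staining.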

| Molecule | MBP Kinase Activity |
| --- | --- |
| B1 | Strong |
| B2 | Weak |
| B3 | Strong |
| B4 | Negative |
| B5 | Negative |
| B6 | Strong |
| B7 | Negative |
| B8 | Strong |
| B9 | Strong |
